Test results from patent US20260152557A1 (Adimab, published 2026).
Changes are numbered by the printed parent chain.

B1: ADI-26906 (Antibody No. 1), human IgG1 (antibody, V domains shown)
VH: QVQLVQSGAEVKKPGASVKVSCKASGFNIKDYYMHWVRQAPGQRLEWMGWIDLENANTIYDAKFQGRVTITRDTSASTAYMELSSLRSEDTAVYYCARDAYGRYFYDVWGQGTLVTVSS
VL: DIVMTQSPDSLAVSLGERATINCKSSQSLLNARTGKNYLAWYQQKPGQPPKLLIYWASTRESGVPDRFSGSGSGTDFTLTISSLQAEDVAVYYCKQSYSRRTFGGGTKVEIK
notes: Non-pH-dependent parent; Tested as human IgG1 (yeast-produced aglycosylated, or CHO-produced); also called Ab No. 1
B2: Fab of ADI-48587 (Antibody No. 2) (Fab, V domains shown)
VH: B1 VH with A100H, G102H
VL: B1 VL with K36H, Y98H, R100H
notes: Fab made by papain digestion of the human IgG1 (yeast- or CHO-produced); also called Antibody No. 2 Fab; ADI-48587 Fab
B3: ADI-74965 (Antibody No. 3), human IgG1 (antibody, V domains shown)
VH: B1 VH with G102H
VL: B1 VL with K36H, Y98H, R100H
notes: Tested as human IgG1 (yeast-produced aglycosylated, or CHO-produced)
B4: Fab of ADI-74965 (Antibody No. 3) (Fab, V domains shown)
VH: B1 VH with G102H
VL: B1 VL with K36H, Y98H, R100H
notes: Fab made by papain digestion of the human IgG1 (yeast- or CHO-produced); also called Antibody No. 3 Fab; ADI-74965 Fab
B5: ADI-74968 (Antibody No. 6), human IgG1 (antibody, V domains shown)
VH: B1 VH with G102H
VL: B1 VL with K36H, R100H
notes: as for B3
B6: Fab of ADI-74968 (Antibody No. 6) (Fab, V domains shown)
VH: B1 VH with G102H
VL: B1 VL with K36H, R100H
notes: Fab made by papain digestion of the human IgG1 (yeast- or CHO-produced); also called Antibody No. 6 Fab; ADI-74968 Fab
B7: ADI-74967 (Antibody No. 5), human IgG1 (antibody, V domains shown)
VH: B1 VH with A100H, G102H
VL: B1 VL with D1G, Y98H, R100H
notes: as for B3
B8: Fab of ADI-74967 (Antibody No. 5) (Fab, V domains shown)
VH: B1 VH with A100H, G102H
VL: B1 VL with D1G, Y98H, R100H
notes: Fab made by papain digestion of the human IgG1 (yeast- or CHO-produced); also called Antibody No. 5 Fab; ADI-74967 Fab
B9: Fab of ADI-26906 (Antibody No. 1) (Fab, V domains shown)
VH: B1 VH
VL: B1 VL
notes: Fab made by papain digestion of the human IgG1 (yeast- or CHO-produced); also called Antibody No. 1 Fab; ADI-26906 Fab

Columns and labels:
[1] = target: T1, human CD3 on CD3+ Jurkat cells (human, UniProt P07766 23-207); test: flow cytometry, yeast-produced IgG 100 nM on CD3+ Jurkat cells, pH 7.4
T1 construct: whole, on cells; The whole CD3 complex stands on the cells; also called Human CD3 Jurkat; human CD3+ Jurkat cells
Experimental: (§1) Anti-CD3 antibodies Antibody Nos. 1-13 were produced as aglycosylated IgGs comprising a IgG1 Fc region in yeast cells. Binding to human or cynomolgus CD3-expressing cells (human CD3+ Jurkat cells or cynomolgus HSC-F cells, respectively) at pH 7.4 and pH 6.0 were measured by fluorescence-activated single cell sorting (FACS). Normalized cell binding (NCB) values were calculated based on median fluorescence intensity (MFI) values, CD3 negative Jurkat cells were used as a negative control.
(§2) Cell binding assay, CD3+ and CD3− human Jurkat cells (ATCC) and cynomolgus HSC-F cells (NIH) were thawed and washed with cold PBSF buffer, pH 7.4 (PBS+0.1% BSA, pH 7.4). About 200,000 cells were aliquoted per well of a 96-well plate (FACS Assay Plate VWR BD 353263) and pelleted by centrifugation (5 minutes at 500×g). The cells were washed with either PBSF pH 7.4 or PBSF pH 6.0 (PBS+0.1% BSA, pH 6.0), and then resuspended in 100 μl in either PBSF pH 7.4 or PBSF pH 6.0 with IgG antibody (100 nM) produced in yeast as described above. The mixture (cells+antibody) was incubated for 20 minutes on ice, then washed twice with either PBSF pH 7.4 or PBSF pH 6.0. Cells were resuspended in 50 μl of propidium iodide (Roche; 1:500 dilution) and anti-human IgG-RPE (Southern Biotech; 1:100 dilution) prepared in either PBSF pH 7.4 or PBSF pH 6.0, then incubated for 20 minutes on ice in the dark before cells were washed twice with either PBSF pH 7.4 or PBSF pH 6.0. Binding was analyzed on FACS Canto 11.

[2] = target: T2, cynomolgus CD3εδ-Fc heterodimer (Cy CD3ε Fc / CD3δ Fc-HIS) (cynomolgus, UniProt Q95LI8 22-100); test: BLI (Octet), yeast-produced IgG on AHC sensor, CD3εδ-Fc 100 nM in solution, pH 6.0
T2 construct: range 22-100; Produced in HEK 293 cells; also called Cy CD3εδ Fc heterodimer; not shown: Fc-HIS part of CD3δ Fc-HIS
Experimental: (§3) Anti-CD3 antibodies Antibody Nos. 1-13 were produced as human IgG1 antibodies in yeast or CHO cells. IgGs produced in yeast were aglycosylated, CHO) produced IgGs had standard CH2 glycosylation. Binding affinity to human or cynomolgus CD3εδ-Fc at pH 7.4 and pH 6.0 was measured via biolayer interferometry (BLI) using the ForteBio OCTET® HTX system and analyzed using the ForteBio software.
(§4) Kinetics were analyzed using the 1:1 binding model.

[3] = target: T3, human CD3εδ-Fc heterodimer (Hu CD3ε Fc / CD3δ Fc-HIS) (human, UniProt P04234 22-100); test: as above
T3 construct: range 22-100; Produced in HEK 293 cells with a heterologous signal peptide; heterodimer purified by Ni Sepharose and Mono Q; also called Hu CD3εδ Fc heterodimer; CD3εδ Fc-HIS heterodimer; not shown: Fc-HIS part of CD3δ Fc-HIS
Experimental: as §3, §4

[4] = target: T2, cynomolgus CD3εδ-Fc heterodimer (Cy …); test: BLI (Octet), CHO-produced IgG on AHC sensor, CD3εδ-Fc 100 nM in solution, pH 7.4
Experimental: as §3, §4

[5] = target: T2, cynomolgus CD3εδ-Fc heterodimer (Cy …); test: BLI (Octet), yeast-produced IgG on AHC sensor, CD3εδ-Fc 100 nM in solution, pH 7.4
Experimental: as §3, §4

[6] = target: T3, human CD3εδ-Fc heterodimer (Hu CD3ε Fc …); test: as above
Experimental: as §3, §4

[7] = target: T4, cynomolgus CD3 on HSC-F cells (cynomolgus, UniProt Q95LI5 22-198); test: flow cytometry, yeast-produced IgG 100 nM on HSC-F cells, pH 6.0
T4 construct: whole, on cells; also called Cyno HSC-F; cynomolgus HSC-F cells
Experimental: as §1, §2

[8] = target: T1, human CD3 on CD3+ Jurkat cells; test: flow cytometry, yeast-produced IgG 100 nM on CD3+ Jurkat cells, pH 6.0
Experimental: as §1, §2

[9] = target: T4, cynomolgus CD3 on HSC-F cells; test: flow cytometry, yeast-produced IgG 100 nM on HSC-F cells, pH 7.4
Experimental: as §1, §2

[10] = target: T2, cynomolgus CD3εδ-Fc heterodimer (Cy …); test: BLI (Octet), CHO-produced IgG on AHC sensor, CD3εδ-Fc 100 nM in solution, pH 6.0
Experimental: as §3, §4

[11] = target: T2, cynomolgus CD3εδ-Fc heterodimer (Cy …); test: SPR (Biacore 8K), CHO-produced Fab, monovalent, pH 7.4
Experimental: (§5) Anti-CD3 antibodies (Antibody Nos. 1-13) were produced as human IgG1 antibodies in yeast or Chinese hamster ovary (CHO) cells, and Fab fragments were generated from the IgG1 antibodies by papain digestion and purified IgGs produced in yeast were aglycosylated. CHO produced IgGs had standard CH2 glycosylation. […] Monovalent binding affinity to human or cynomolgus CD3εδ-Fc at pH 7.4 and pH 6.0 were measured via surface plasmon resonance (SPR) using the BIACORE® 8K (Cytiva, previously GE Healthcare Life Sciences) system and analyzed using BIACORE® Evaluation Software.
(§6) BIACORE® KD measurements (surface plasmon resonance; SPR). BIACORE® affinity measurements were performed generally as previously described. Briefly, human CD3εδ-Fc heterodimer produced as described above was immobilized to a NiNTA sensor chip in a BIACORE® 8K (Cytiva, previously GE Healthcare Life Sciences) to a response level of ˜500 RUs. […] The sensor chip was doubly regenerated between cycles using 0.35 M EDTA and 0.1 M NaOH. The resulting data were double reference subtracted and fit to a 1:1 binding model using BIACORE® Evaluation Software.

[12] = target: T3, human CD3εδ-Fc heterodimer (Hu CD3ε Fc …); test: BLI (Octet), CD3εδ-Fc on AHC sensor, CHO-derived Fab 100 nM in solution, pH 6.0
[13] = target: T3, human CD3εδ-Fc heterodimer (Hu CD3ε Fc …); test: SPR (Biacore 8K), yeast-produced Fab, monovalent, pH 6.0
Experimental: as §5, §6

[14] = target: T2, cynomolgus CD3εδ-Fc heterodimer (Cy …); test: SPR (Biacore 8K), CHO-produced Fab, monovalent, pH 6.0
Experimental: as §5, §6

[15] = target: T3, human CD3εδ-Fc heterodimer (Hu CD3ε Fc …); test: as above
Experimental: as §5, §6

[16] = target: T3, human CD3εδ-Fc heterodimer (Hu CD3ε Fc …); test: BLI (Octet), CD3εδ-Fc on AHC sensor, CHO-derived Fab 100 nM in solution, pH 7.4
[17] = target: T3, human CD3εδ-Fc heterodimer (Hu CD3ε Fc …); test: SPR (Biacore 8K), CHO-produced Fab, monovalent, pH 7.4
Experimental: as §5, §6

[18] = target: T3, human CD3εδ-Fc heterodimer (Hu CD3ε Fc …); test: SPR (Biacore 8K), yeast-produced Fab, monovalent, pH 7.4
Experimental: as §5, §6

T3 sequence (chain, as listed by the source mutant, form in doubt, chain 1 of 2): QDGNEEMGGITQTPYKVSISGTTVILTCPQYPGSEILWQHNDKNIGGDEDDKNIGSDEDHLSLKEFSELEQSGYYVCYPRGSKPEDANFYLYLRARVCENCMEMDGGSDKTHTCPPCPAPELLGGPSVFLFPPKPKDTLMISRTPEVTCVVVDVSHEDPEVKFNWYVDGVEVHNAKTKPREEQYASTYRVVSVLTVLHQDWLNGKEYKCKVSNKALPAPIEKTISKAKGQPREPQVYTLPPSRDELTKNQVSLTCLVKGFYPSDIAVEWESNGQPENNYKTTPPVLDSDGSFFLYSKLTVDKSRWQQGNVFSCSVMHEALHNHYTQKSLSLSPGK
T3 sequence (P04234 22-100, stated change not applied, form in doubt, chain 2 of 2): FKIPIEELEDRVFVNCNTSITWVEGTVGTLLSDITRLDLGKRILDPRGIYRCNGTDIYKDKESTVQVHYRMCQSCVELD
T2 sequence (chain, as listed by the source mutant, form in doubt, chain 1 of 2): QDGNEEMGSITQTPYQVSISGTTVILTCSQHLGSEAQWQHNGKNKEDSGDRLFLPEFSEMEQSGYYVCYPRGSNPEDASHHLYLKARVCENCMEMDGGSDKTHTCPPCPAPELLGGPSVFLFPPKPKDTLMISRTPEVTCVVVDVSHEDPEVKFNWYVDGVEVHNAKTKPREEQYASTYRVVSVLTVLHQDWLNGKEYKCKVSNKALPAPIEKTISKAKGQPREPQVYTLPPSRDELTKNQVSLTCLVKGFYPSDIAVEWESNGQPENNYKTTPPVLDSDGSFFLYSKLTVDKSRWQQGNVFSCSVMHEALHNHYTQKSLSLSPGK
T2 sequence (Q95LI8 22-100, stated change not applied, form in doubt, chain 2 of 2): as the sequence (P04234 22-100, stated change not applied, form in doubt, chain 2 of 2) above, with I5V, N15K, I20V, S32T, D33N, I34N, T64A, S74N counted along it
T4 sequence (Q95LI5 22-198): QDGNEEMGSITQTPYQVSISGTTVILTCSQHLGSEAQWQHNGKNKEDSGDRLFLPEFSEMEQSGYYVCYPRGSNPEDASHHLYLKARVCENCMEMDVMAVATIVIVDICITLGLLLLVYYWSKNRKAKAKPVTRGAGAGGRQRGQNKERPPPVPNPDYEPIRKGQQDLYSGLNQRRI
T1 sequence (P07766 23-207): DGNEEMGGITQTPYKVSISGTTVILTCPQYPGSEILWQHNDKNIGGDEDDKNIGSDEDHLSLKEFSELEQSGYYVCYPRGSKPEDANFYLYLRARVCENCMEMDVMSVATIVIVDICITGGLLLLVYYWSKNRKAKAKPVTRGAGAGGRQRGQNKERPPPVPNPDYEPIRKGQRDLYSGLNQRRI

NCB [1] | Kd [2] | Kd [3] | Kd [4] | Kd [5] | Kd [6] | NCB [7] | NCB [8] | NCB [9] | Kd [10] | Kd [11] | Kd [12] | Kd [13] | Kd [14] | Kd [15] | Kd [16] | Kd [17] | Kd [18] | Binder
149 | 2.5 nM | 2.84 nM | 5.87 nM | 4.1 nM | 4.35 nM | 560 | 203 | 167 | 5.89 nM | – | – | – | – | – | – | – | – | B1
– | – | – | – | – | – | – | – | – | – | 62.7 nM | 65.9 nM | 15.7 nM | 25.4 nM | 43.2 nM | – | – | – | B2
39 | 6.56 nM | 6.68 nM | – | 21.8 nM | 13.7 nM | 551 | 181 | 74 | 33.5 nM | – | – | – | – | – | – | – | – | B3
– | – | – | – | – | – | – | – | – | – | – | 24.4 nM | 10.5 nM | 11.3 nM | 10.9 nM | 142 nM | – | – | B4
62 | 5.26 nM | 5.23 nM | – | 20.5 nM | 13 nM | 548 | 197 | 106 | 17 nM | – | – | – | – | – | – | – | – | B5
– | – | – | – | – | – | – | – | – | – | 46.5 nM | 14.8 nM | 6.07 nM | 6.18 nM | 6.37 nM | 69.3 nM | 47.5 nM | – | B6
34 | 7.38 nM | 5.94 nM | – | 21.9 nM | 14.5 nM | 512 | 185 | 81 | 37 nM | – | – | – | – | – | – | – | – | B7
– | – | – | – | – | – | – | – | – | – | 73.7 nM | 24.9 nM | 8.45 nM | 11.6 nM | 8.16 nM | – | 55.5 nM | – | B8
– | – | – | – | – | – | – | – | – | – | 1.09 nM | 5.81 nM | 1.9 nM | 1.9 nM | 1.25 nM | 6.03 nM | 1.09 nM | 2.4 nM | B9
